Experimental findings from PMC2829314 are described below.

This assay has as its target LRRTM2-mVenus (full-length LRRTM2 mVenus-fusion protein) (UniProt O43300). Briefly: saturation binding to cells.

pKd: −log10 of the molar value.

Chain of UniProt O43300 (O43300 34-516): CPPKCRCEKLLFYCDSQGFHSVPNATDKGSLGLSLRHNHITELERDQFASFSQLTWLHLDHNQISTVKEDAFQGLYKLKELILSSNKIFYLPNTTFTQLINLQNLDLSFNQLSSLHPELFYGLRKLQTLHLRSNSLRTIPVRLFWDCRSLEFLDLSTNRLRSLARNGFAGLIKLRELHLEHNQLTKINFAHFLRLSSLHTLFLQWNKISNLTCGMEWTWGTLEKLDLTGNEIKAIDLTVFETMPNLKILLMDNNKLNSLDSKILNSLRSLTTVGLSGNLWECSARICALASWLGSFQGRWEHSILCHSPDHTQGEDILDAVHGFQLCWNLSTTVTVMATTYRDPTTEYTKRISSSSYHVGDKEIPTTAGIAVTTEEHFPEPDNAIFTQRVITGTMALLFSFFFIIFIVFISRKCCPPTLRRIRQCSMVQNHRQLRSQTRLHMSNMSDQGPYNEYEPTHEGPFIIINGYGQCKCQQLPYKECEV

In turn, “IgNrx1β^SS4− (Ig-fusion protein of neurexin-1β lacking an insert in splice site #4) (Fc fusion)” gave a pKd of 8.23.

For orientation: pKd means −log10 of the Kd, conventionally taken in molar units.
